Data on one molecule can be found in patent publication CN110655572A.

The EC50 is the midpoint of the concentration-response curve.

The target in test [1] is 扎依尔型GP蛋白 (扎依尔型埃博拉病毒 (ZEBOV)). Nature of the test: cell-based or functional assay.
For test [2], the target named is 苏丹型GP蛋白 (苏丹型埃博拉病毒 (SUDV)). Nature of the test: cell-based or functional assay.
Test [3] has as its target 马尔堡病毒GP蛋白 (马尔堡病毒 (MARV)). Briefly: cell-based or functional assay.
For test [4], the target named is 扎依尔型GP蛋白 (扎依尔型埃博拉病毒 (ZEBOV)). Briefly: ELISA, GP protein coated on plate, goat anti-human IgG-HRP detection. For orientation: An ELISA detects its analyte on a solid surface through an enzyme-linked reagent.
Test [5] deals with 苏丹型GP蛋白 (苏丹型埃博拉病毒 (SUDV)). Described as above.
For test [6], the target named is 马尔堡病毒GP蛋白 (马尔堡病毒 (MARV)). Described as above.

B1: 单克隆抗体40C1L (antibody, V domains shown)
VH: EVQLVQSGAEVKRPGESLKISCKTSGYSFPTYWITWVRQMPGKGLEWMGTIDLSDSETKYSPSFDGQVTISADKSINTAYLQWSSLKASDSATYYCAMRYSNYRTWFNVWGPGVLVTVSS
VL: SYDLTQPPSVSVSPGQTARITCGGDNIGSEAVHWYQQQPPQAPVLVIYYNRERPSGIPERFSGSKSGNTATLTISGVEAGDEADYYCQLWDSSSDYPLFGGGTRLTVL
Regarding B1, the 假病毒中和 最大半数抑制浓度(IC50) stood at 25.3 µg/mL in test [1], 3.12 µg/mL in test [2] and 14.5 µg/mL in test [3]. For the same molecule, the results for the EC50 in test [4], in test [5] and in test [6] were 0.697 µg/mL, 2.09 µg/mL and 0.342 µg/mL, respectively.
